Among the data in the supplement of paper PMC12042874 are amyloid nucleation score values, retold here.

± gives the uncertainty stated by the source.

This series in a line: amyloid nucleation score (Sup35N fusion, yeast selection) (log enrichment); library NNK1; higher = more nucleation; inactive = no reads after selection. In a few lines: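 For the nucleation score, DiMSum gave the log enrichment of output over input reads, centred on the mode score of non-aggregating sequences. Psi-negative yeast expressing Sup35N fused to peptides of 20 random codons were induced with 100 μM copper sulfate for 24 hours and grown 7 days at 30°C on medium lacking adenine and uracil. Input and output plasmid inserts were Illumina-sequenced, and sequences with under 100 input reads were excluded.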
With HPIGSDSPHSVFMVSCVSLQ, the amyloid nucleation score is 1.68 ± 0.28.

On to HPLRLYRKSISINVVLSSCL, for which the amyloid nucleation score was 0.733 ± 0.88.

The substance HQTCCLWSTVVLGV displayed an amyloid nucleation score of 3.04 ± 0.15.

The substance HQVVNNGTWGEQYIWMLSAC showed an amyloid nucleation score of 0.442 ± 0.46.

As for HRFSCG, the amyloid nucleation score result was “inactive”.

Consider HRISASTLCVIMALRFTSWR, for which the amyloid nucleation score came out at 1.42 ± 0.44.

With HRKTSPISENQVY, the amyloid nucleation score is -0.59 ± 0.27.

With HRPDIHFVVPVTAP, the amyloid nucleation score was -0.619 ± 0.4.

For the substance HRQTNKGEHIQDHAAMLVFR, the amyloid nucleation score was -0.18 ± 0.63.

The substance HRSCCNKRRRERNFSDWTGV had an amyloid nucleation score of 0.542 ± 0.77.

For the substance HRWTLMEVYITGIALKYVVY, the amyloid nucleation score was -0.58 ± 0.76.

In the case of HSGQYCSAHPGFVK, the amyloid nucleation score was -0.49 ± 0.5.

As for HSMLI, the amyloid nucleation score came to 0.539 ± 0.61.

As to HSSNAAFCYAVTIYLQVLLV, the amyloid nucleation score was determined as 0.837 ± 0.66.

Take HSSPLGLLWGAPARRRYCRR: the amyloid nucleation score is -0.32 ± 0.87.

With HSTCLPNTIQTLRRRALSCR, the amyloid nucleation score was -1.22 ± 1.9.

Take HSVLVVSVVHCGFKQKRNK: the amyloid nucleation score was determined as 3.98 ± 0.15.

Substance HSVVLILCLAL had an amyloid nucleation score of 0.057 ± 1.2.

In turn, HSVYL came in with an amyloid nucleation score of 1.24 ± 0.3.

Regarding HTKDSGSVARCVVSNLSCNT, the amyloid nucleation score was 1.09 ± 0.48.

The substance HTRIADGPAC yielded an amyloid nucleation score of 0.018 ± 0.21.

For the substance HTRNVKTLRVKHSIDVPFLP, the amyloid nucleation score came to 1.41 ± 0.74.

Consider HTRRTEFHAGYYRINTAYAV, for which the amyloid nucleation score amounted to 0.268 ± 0.7.

Regarding HTSFGVCVSVICFVLRWAYH, the amyloid nucleation score entry was “inactive”.

Regarding HTWMSLRGVAFTCQ, the amyloid nucleation score is -0.13 ± 0.3.

The substance HTWNPDYVAECFKEFKRLYK came in with an amyloid nucleation score of 0.393 ± 0.61.

In the case of HVDDIWWTTFMYFPRCHLHV, the amyloid nucleation score came to 0.858 ± 0.57.

For the substance HVDKFLG, the amyloid nucleation score is -0.025 ± 0.6.

With HVMTFEVSFRTGCKDVINWV, the amyloid nucleation score amounted to 1.03 ± 0.18.

HVQIILYLSFKTRRLVDLCL: the amyloid nucleation score result was “inactive”.

As for HVSAWWLTSNV, the amyloid nucleation score was -0.205 ± 0.37.

Take HWLSAMIGVPEHGH: the amyloid nucleation score is -0.121 ± 0.33.

Take HWLTV: the amyloid nucleation score was -1.27 ± 1.6.

In the case of HWSSSS, the amyloid nucleation score was -0.745 ± 0.66.

In the case of HWVGFLRYTSIKDDHQFGSK, the amyloid nucleation score was -0.323 ± 0.51.

For the substance HYGVDEAFGRWDGVLMCQKV, the amyloid nucleation score is -0.134 ± 0.4.

HYLISSCWIIRSGWADGTGR gave an amyloid nucleation score of 1.01 ± 0.15.

HYSHAWTVSRLMWNRDERGA came in with an amyloid nucleation score of 1.59 ± 0.2.

Regarding HYTFKDCSSPLSWEPQPLFP, the amyloid nucleation score was -0.32 ± 0.83.

The substance HYYVLCFRVHLGQ yielded an amyloid nucleation score of 0.176 ± 1.1.

For the substance IALSTYCRNTDSPSSSGSCY, the amyloid nucleation score was -0.245 ± 0.77.

As for IAMLSCQRWMCQQTVTSKF, the amyloid nucleation score was -1.29 ± 0.77.

In the case of IANGHKSSRCMQKDSSTS, the amyloid nucleation score is 0.586 ± 0.35.

Turning to IASFKWGFLMDYNLYVSSSG, the amyloid nucleation score stood at 0.261 ± 0.38.

With IAWFYRGPIKLLRLYIGGIW, the amyloid nucleation score is -0.042 ± 0.73.

ICDRAWRCFKTKSTQPVTVS: the amyloid nucleation score was -0.19 ± 0.36.

In turn, ICGTCCMPNLFVHHYIFLSP returned an amyloid nucleation score of 6.708 ± 0.063.

Regarding ICIYNSGIGLTGVRVWVQGL, the amyloid nucleation score entry was “inactive”.

Turning to ICKFDLALKFRGRYTEAEWC, the amyloid nucleation score is 1 ± 0.32.

The substance ICMILVPFMPT came in with an amyloid nucleation score of 0.976 ± 1.1.

As for ICVNESKKVFQVFIANIGRG, the amyloid nucleation score was determined as 4.86 ± 0.07.

In turn, IDEYTDMN gave an amyloid nucleation score of 0.146 ± 0.42.

In the case of IDHNLSGLVC, the amyloid nucleation score was 0.544 ± 0.97.

For IDKGLHALLSTLLSINVSFC, the amyloid nucleation score is 2.95 ± 0.094.

Substance IDVGSHFCSFQEHKACGTSL had an amyloid nucleation score of 0.31 ± 0.47.

In the case of IDYRIDCVCFLCSVREEAYR, the amyloid nucleation score was determined as 7.278 ± 0.047.

IEAYYGIPDVKHMLVYLRQD: the amyloid nucleation score is -0.284 ± 0.7.

On to IENRFLGVKLIAGCSHGLWS, for which the amyloid nucleation score is -0.241 ± 0.57.

IEQSNMVTARRLELLRSAVS came in with an amyloid nucleation score of 0.339 ± 0.54.

Consider IEVDPTNSKKSAPDTHLGSL, for which the amyloid nucleation score was -0.001 ± 0.95.

Substance IEVKSWYATPNFGSQLSKRD gave an amyloid nucleation score of 0.274 ± 0.45.

Regarding IEYCIVSFQSMGE, the amyloid nucleation score is 0.326 ± 0.46.

IFDYSTLECESDEGEAEGMS showed an amyloid nucleation score of 0.572 ± 0.81.

For the substance IFHLCFLKGNGSFMLYKRHT, the amyloid nucleation score is -0.462 ± 0.51.

IFILD: the amyloid nucleation score entry is “inactive”.

The substance IFRFSNFR returned an amyloid nucleation score of 5.822 ± 0.054.

As for IFSIRFTLCGWPLLCHIMLL, the amyloid nucleation score was -0.302 ± 0.31.

With IFTFSIVTSNATGYLW, the amyloid nucleation score stood at 2.29 ± 0.12.

For the substance IFTRW, the amyloid nucleation score was -0.741 ± 0.49.

As for IGACFWRFIFVKLSTNL, the amyloid nucleation score is -0.406 ± 0.36.

Turning to IGATLAPLTMSLNRSSDESS, the amyloid nucleation score was 0.655 ± 0.64.

Take IGCGGVPKNQCWGPERFLEW: the amyloid nucleation score was -0.132 ± 0.57.

Regarding IGDTI, the amyloid nucleation score came out at 0.302 ± 0.33.

In turn, IGFEIHFMYALE showed an amyloid nucleation score of 0.355 ± 1.

IGGCWLLQMN yielded an amyloid nucleation score of 0.369 ± 0.44.

In turn, IGGVFALHCRMNIAPGSHTL gave an amyloid nucleation score of 2.38 ± 0.14.

Regarding IGLMRLC, the amyloid nucleation score was -0.608 ± 1.2.

Regarding IGRMSYWGCRTLNNSPCGKF, the amyloid nucleation score is -1.22 ± 1.7.

As to IHGTMRGYWHMLFQELNIGV, the amyloid nucleation score was -0.152 ± 0.54.

With IHQEIVNVNTIVCN, the amyloid nucleation score is -0.147 ± 0.25.

Regarding IHSAYLNAQRKVWATAKFKW, the amyloid nucleation score was -0.639 ± 0.35.

As to IHVAFHSLSQCGRCVYCSVL, the amyloid nucleation score was 3.25 ± 0.16.

Take IHVTGCYLEPSAHF: the amyloid nucleation score entry was “inactive”.

Consider IICISFWSVKLVDHPMVSNG, for which the amyloid nucleation score was determined as 0.726 ± 0.75.

As to IICSLW, the amyloid nucleation score turned out to be 0.614 ± 0.34.

As for IIEFML, the amyloid nucleation score entry was “inactive”.

IIFWGLCICHPVLPTRGGWE: the amyloid nucleation score amounted to 7.26 ± 0.084.

IIGSEARLD: the amyloid nucleation score entry is “inactive”.

In turn, IIIRRISGGFAVPSYAHLHS returned an amyloid nucleation score of 0.53 ± 0.32.

Regarding IIKDDLRMCWDGKRYWNSLI, the amyloid nucleation score was determined as 0.713 ± 0.32.

Regarding IILRFVCDI, the amyloid nucleation score result was “inactive”.

In turn, IIQRAM had an amyloid nucleation score of 0.09 ± 0.7.

As to IIREFSEGWVISKLDQD, the amyloid nucleation score is -0.446 ± 0.3.

With IITMIP, the amyloid nucleation score was -0.514 ± 0.65.

For IIVIIVLLDLDVSWVDYEVM, the amyloid nucleation score was -0.157 ± 0.78.

For the substance IIVTSKQSTTYTHLVWERSG, the amyloid nucleation score is -0.629 ± 0.69.

As to IIWIRAVPLMTRNEGVCECG, the amyloid nucleation score was -0.982 ± 1.8.

Consider IIWMSRRSSSLNEKGLKFNY, for which the amyloid nucleation score is -0.548 ± 0.29.

Substance IIYDLLCYSWRMFWL showed an amyloid nucleation score of 2.27 ± 0.1.

IIYNAKE showed an amyloid nucleation score of 0.367 ± 0.36.

Substance IKEFRYMLKRYLLWFVDLLL had an amyloid nucleation score of 0.762 ± 0.59.

In turn, IKFERAIRSSVGKQRC registered an amyloid nucleation score of 0.784 ± 0.71.

IKMRWISFKCLPYCMFKNRI: the amyloid nucleation score is -0.355 ± 0.35.

On to IKSVVLS, for which the amyloid nucleation score was 0.043 ± 0.63.

For the substance ILEEYYLCIWLEVAWHICHA, the amyloid nucleation score is -0.571 ± 0.8.

Take ILENTVCSIFVSVVIANVGL: the amyloid nucleation score is 1.94 ± 0.53.

Substance ILESCIWDITRLRWPYGSSW returned an amyloid nucleation score of 0.741 ± 0.21.

Substance ILEYWSISKKPYMIVMGGRV showed an amyloid nucleation score of 0.15 ± 0.34.

Substance ILFSNCSFLKSCYWFK registered an amyloid nucleation score of 7.25 ± 0.085.

Consider ILFVG, for which the amyloid nucleation score is -0.462 ± 0.42.

The substance ILGRYNNAVLGVGSEQWSVG registered an amyloid nucleation score of 0.287 ± 0.46.

On to ILIRNIMCSGSVSLSNLGSG, for which the amyloid nucleation score is -0.134 ± 1.

ILKELSKPGVQPVVS returned an amyloid nucleation score of 0.575 ± 0.8.

On to ILLELVASTVVLPLIT, for which the amyloid nucleation score turned out to be 0.165 ± 0.43.

For ILLMSNYYAVRQEEFDQLPV, the amyloid nucleation score result was “inactive”.

For ILNFRERL, the amyloid nucleation score was -1.06 ± 0.43.

With ILRNDMSATVNM, the amyloid nucleation score came to 0.97 ± 0.17.

With ILRPSSFNMVALDLNISLPK, the amyloid nucleation score was determined as 4.82 ± 0.087.

For ILRTFVSSCVDVGTYSTTKC, the amyloid nucleation score is -1.52 ± 2.4.

For ILSERHWVFELYGLCGWRRE, the amyloid nucleation score is 0.493 ± 0.52.

Turning to ILTVLLISMWVMNHLIFLGL, the amyloid nucleation score was -0.563 ± 1.4.

ILVSYLSLPT came in with an amyloid nucleation score of 0.802 ± 0.42.

Regarding ILYMWWVRPLVQAQENRRRY, the amyloid nucleation score is -0.089 ± 0.39.

For ILYTNRMCLWSKTSNFLPLR, the amyloid nucleation score is -0.318 ± 0.29.

IMAGHFRL registered an amyloid nucleation score of 3.69 ± 0.082.

For the substance IMETHLFLTETGNLLSKMGD, the amyloid nucleation score result was “inactive”.

In turn, IMLLAWQLSKMSSFVCKSTR showed an amyloid nucleation score of 0.16 ± 0.74.

INFARPVTILTYATFSVFGN displayed an amyloid nucleation score of 4.9 ± 0.082.

Consider ININGNVY, for which the amyloid nucleation score is 0.849 ± 1.1.

For INNGIQ, the amyloid nucleation score is -0.047 ± 0.96.

As to INNHKIDQTML, the amyloid nucleation score is -0.541 ± 0.84.

Substance INRFTICTFHWTGFALNALS returned an amyloid nucleation score of 2.26 ± 0.17.

Turning to INSTEIPFDPAVKL, the amyloid nucleation score is -0.908 ± 0.79.

Take INTCCIRCFRQYGNFNKIKT: the amyloid nucleation score was 0.662 ± 1.1.

INVMWRYSFWLEFQT: the amyloid nucleation score is -0.442 ± 0.4.

With INYFQDD, the amyloid nucleation score was -0.727 ± 1.4.

With INYGMRCYEE, the amyloid nucleation score was -0.427 ± 1.2.

As to INYHMVNLNVLAMC, the amyloid nucleation score came out at 2.17 ± 0.46.

The substance IPRGCRFKSRVTVKINSGAG had an amyloid nucleation score of 1.37 ± 0.9.

IPYLN registered an amyloid nucleation score of 1.15 ± 0.54.

As to IQAMGGRMSRAV, the amyloid nucleation score is -0.073 ± 0.77.

IQWGEKNGCGHLGQFMWYDG registered an amyloid nucleation score of 0.193 ± 0.58.
